The text below walks through data of US20210292413A1.

Experiment [1] addresses HBV purified from blood of chronic hepatitis B patients (hHBV virions carrying hHBsAg) (hepatitis B virus from CHB patients). Kind of experiment: BLI, Siglec-3.Fc immobilized on the sensor, hHBV in solution. (BLI is a label-free optical method that tracks binding on a fibre tip over time.)
Experiment [2] shares this target. Nature of the experiment: calculated from three BLI results by the multivalency equation of paragraph 89.
In experiment [3] the target is hHBV treated with sialidase S (hepatitis B virus from CHB patients). Nature of the experiment: BLI, Siglec-3.Fc immobilized on the sensor, sialidase S-treated hHBV in solution.
Experiment [4] addresses HBV purified from blood of chronic hepatitis B patients (hHBV virions carrying hHBsAg) (hepatitis B virus from CHB patients). Nature of the experiment: BLI, Siglec-3.Fc immobilized on the sensor, untreated hHBV in solution.

One may read the Kd as the constant that tells how readily two partners part at equilibrium. A high value points to a looser complex. As usually defined, the koff is the first-order rate constant of dissociation. Higher therefore signals a short-lived complex. What is called kon is the second-order rate constant of association. Lower therefore signals slow association.

In experiment [1], “recombinant human Siglec-3 ECD.Fc fusion protein (from UniProt P20138 18-259)” had a Kd of 0.115 nM, a koff of 0.000358 s⁻¹ and a kon of 3.11e+06 M⁻¹ s⁻¹. In addition, the valence (N) in experiment [2] is 2. In experiment [3], this substance gave a Kd of 0.384 nM, a koff of 0.000273 s⁻¹ and a kon of 711000 M⁻¹ s⁻¹. In experiment [4], this substance showed a Kd of 0.591 nM, a koff of 0.000697 s⁻¹ and a kon of 1.18e+06 M⁻¹ s⁻¹.
